Tested on: K562 CRISPRi cells
Assay: Constant region variant library pooled growth screen, K562
Format: cell-based, human
Settings: sgRNA constant region variants
Summary of the method: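 K562 CRISPRi, duplicate transductions; puromycin 1 d 0.75 μg/mL then 1 d 0.85 μg/mL; >2000× coverage in spinner flasks; harvests at 4-8 d growth. Activity = phenotype ÷ phenotype with unmodified constant region.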

[1] = activity relative to the unmodified constant region cr995
[2] = activity relative to the original, un-modified constant region cr995

B1: cr002 (nucleic acid)
guide: CTTTAAGAGCTAAGCTGGAAACAGCATAGCAAGTTTAAATAAGGCTAGTCCGTTATCAACTTGAAAAAGTGGCACCGAGTCGGTGCT
modifications: listed as DNA, chemistry not fully specified
[1]
  Mean relative activity: 0.3195

B2: cr466 (nucleic acid)
guide: GTTTAAGAGCTAAGCTGGAAACAGCATAGCAAGTTTAAAAAAGGCTAGTCCGTTATCAACTTGAAAAAGTGGCACCGAGTCGGTGCT
modifications: listed as DNA, chemistry not fully specified
[1]
  Mean relative activity: 0.3153

B3: cr685 (nucleic acid)
guide: GTTTAAGAGCTAAGCTGGAAACAGCATAGCAAGTTTAAATAAGGCTAGTCCGTTATCAGCTTGAAAAAGTGGCACCGAGTCGGTGCT
modifications: listed as DNA, chemistry not fully specified
[2]
  Mean relative activity: 1.041

B4: cr146 (nucleic acid)
guide: GTTTAAGAGCTAAGCTGGAAACAGCATAGCAAGTTTAAATAAGGCTAGTCCGTTATCAACTTGAAAAAGTGGCACGCAGTGCGTGCT
modifications: listed as DNA, chemistry not fully specified
[1]
  Mean relative activity: 0.3141

B5: cr210 (nucleic acid)
guide: GTTTAAGAGCTAAGCTGGAAACAGCATAGCAAGTTTAAATAAGGCTAGTCCGTTATCTACTTGACAAAGTGGCACCGAGTCGGTGCT
modifications: listed as DNA, chemistry not fully specified
[1]
  Mean relative activity: 0.313

B6: cr004 (nucleic acid)
guide: GATTAAGAGCTAAGCTGGAAACAGCATAGCAAGTTTAAATAAGGCTAGTCCGTTATCAACTTGAAAAAGTGGCACCGAGTCGGTGCT
modifications: listed as DNA, chemistry not fully specified
[1]
  Mean relative activity: 0.3103

B7: cr055 (nucleic acid)
guide: GGTTAAGCGCTAAGCTGGAAACAGCATAGCAAGTTTAAATAAGGCTAGTCCGTTATCAACTTGAAAAAGTGGCACCGAGTCGGTGCT
modifications: listed as DNA, chemistry not fully specified
[1]
  Mean relative activity: 0.3045

B8: cr322 (nucleic acid)
guide: GTTTAAGAGCTAAGCTGGAAACAGCATAGCAAGTTTAAATAAGGCTAGCCCGTTATGAACTTGAAAAAGTGGCACCGAGTCGGTGCT
modifications: listed as DNA, chemistry not fully specified
[1]
  Mean relative activity: 0.3033

B9: cr209 (nucleic acid)
guide: GTTTAAGAGCTAAGCTGGAAACAGCATAGCAAGTTTAAATCAGGCTAGTCCGTTATCAACTTGAAAAAGTGGCACCGAGTCGGTGCT
modifications: listed as DNA, chemistry not fully specified
[1]
  Mean relative activity: 0.2959

B10: cr586 (nucleic acid)
guide: GTTTAAGAGCTAAGCTGGAAACAGCATAGCAAGCTTAAATAAGGCTAGTCCGTTATCAACTTGAAAAAGTGGCCCCGAGTCGGGGCT
modifications: listed as DNA, chemistry not fully specified
[1]
  Mean relative activity: 0.2939

B11: cr591 (nucleic acid)
guide: GTTTAAGAGCTAAGCTGGAAACAGCATAGCAAGTTTAAATAAGGCTAGTCCGTTGTCTACTTGAAAAAGTGGCACCGAGTCGGTGCT
modifications: listed as DNA, chemistry not fully specified
[1]
  Mean relative activity: 0.2933

B12: cr027 (nucleic acid)
guide: GTCTAAAAGCTAAGCTGGAAACAGCATAGCAAGTTTAAATAAGGCTAGTCCGTTATCAACTTGAAAAAGTGGCACCGAGTCGGTGCT
modifications: listed as DNA, chemistry not fully specified
[1]
  Mean relative activity: 0.2878

B13: cr892 (nucleic acid)
guide: GTTTAAGAGCTAAGCTGGAAACAGCATAGCAAGTTTAAATAAGGCTAGTCCGTTATCAACGTGAAAACGTGGCGACGAGTCGTCGCT
modifications: listed as DNA, chemistry not fully specified
[2]
  Mean relative activity: 1.041

B14: cr125 (nucleic acid)
guide: GTTTAAGAGCTAAGCTGGAAACAGCATAGCAATTTTAAATAAGGCTAGTCCGTTATCAACTTGATAAAGTGGCACCGAGTCGGTGCT
modifications: listed as DNA, chemistry not fully specified
[1]
  Mean relative activity: 0.2852

B15: cr237 (nucleic acid)
guide: GTTTAAGAGCTAAGCTGGAAACAGCATAGCAAGTTTAAATAAGGATATTCCGTTATCAACGTGAAAACGTGGCACCCAGTGGGTGCT
modifications: listed as DNA, chemistry not fully specified
[1]
  Mean relative activity: 0.2843

B16: cr982 (nucleic acid)
guide: GTTTAAGAGCTAAGCTGGAAACAGCATAGCAAGCTTAAATAAGGCTAGTCCGTTATCAACTTGAAAAAGTGGCAACGAGTCGTTGCT
modifications: listed as DNA, chemistry not fully specified
[1]
  Mean relative activity: 0.2842

B17: cr344 (nucleic acid)
guide: GTTTAAGAGCTAAGCTGGAAACAGCATAGCAAGTTTAAATAAGGCTAGTCCATTATCAACTTGAATAAGTGGCACCGAGTCGGTGCT
modifications: listed as DNA, chemistry not fully specified
[1]
  Mean relative activity: 0.2836

B18: cr331 (nucleic acid)
guide: GTTTAAGAGCTAAGCTGGAAACAGCATAGCAAGCTTAAATAAGGCTAGTCCGTTATCAACTTGAAAAAGTGGCATCGAGTCGATGCT
modifications: listed as DNA, chemistry not fully specified
[1]
  Mean relative activity: 0.2828

B19: cr154 (nucleic acid)
guide: GTTTAAGAGCTAAGCTGGAAACAGCATCGCAAGTTTAAATAAGGCTAGTCCATTATCAACTTGAAAAAGTGGCACCGAGTCGGTGCT
modifications: listed as DNA, chemistry not fully specified
[1]
  Mean relative activity: 0.2827

B20: cr417 (nucleic acid)
guide: GTTTAAGAGCTAAGCTGGAAACAGCATAGCAATTTTAAATAAGGCTAGTCCGTTATCAACTTGAAGAAGTGGCACCGAGTCGGTGCT
modifications: listed as DNA, chemistry not fully specified
[1]
  Mean relative activity: 0.2821

B21: cr907 (nucleic acid)
guide: GTTTAAGAGCTAAGCTGGAAACAGCATAGCAAGTTTAAATAAGGCTAGTCCATTATCAACTTGTAAAAGTGGCACCGATTCGGTGCT
modifications: listed as DNA, chemistry not fully specified
[1]
  Mean relative activity: 0.2821

B22: cr217 (nucleic acid)
guide: GTTTAAGAGCTAAGCTGGAAACAGCATAGCAATTTTAAATAAGGCTAGTCCGTTATCAACTTGACAAAGTGGCACCGAGTCGGTGCT
modifications: listed as DNA, chemistry not fully specified
[1]
  Mean relative activity: 0.2802

B23: cr992 (nucleic acid)
guide: GTTTAAGAGCTAAGCTGGAAACAGCATTGCAAGTTTAAATAAGGCTAGTCCATTATCAACTTGAAAAAGTGGCACCGAGTCGGTGCT
modifications: listed as DNA, chemistry not fully specified
[1]
  Mean relative activity: 0.2785

B24: cr246 (nucleic acid)
guide: GTTTAAGAGCTAAGCTGGAAACAGCATAGCAAGTTTAAAAAAGGCTGGTCCGTTATCAACTTGAAAAAGTGGCACCGAGTCGGTGCT
modifications: listed as DNA, chemistry not fully specified
[1]
  Mean relative activity: 0.2779

B25: cr532 (nucleic acid)
guide: GTTTAAGAGCTAAGCTGGAAACAGCATAGCAAGTTTAAATAAGGCTAGTCCGTTATCAACGTGAAAACGTGACTCCGAGTCGGAGTT
modifications: listed as DNA, chemistry not fully specified
[2]
  Mean relative activity: 1.093

B26: cr972 (nucleic acid)
guide: GTTTAAGAGCTAAGCTGGAAACAGCATAGCAAGTTTAAATAAGTGTACTACGTTATCAACCTGAAAAGGTGGCACCGAGTCGGTGCT
modifications: listed as DNA, chemistry not fully specified
[1]
  Mean relative activity: 0.2767

B27: cr076 (nucleic acid)
guide: AATTAAGAGCTAAGCTGGAAACAGCATAGCAAGTTTAAATAAGGCTAGTCCGTTATCAACTTGAAAAAGTGGCACCGAGTCGGTGCT
modifications: listed as DNA, chemistry not fully specified
[1]
  Mean relative activity: 0.2741

B28: cr277 (nucleic acid)
guide: GTTTAAGAGCTAAGCTGGAAACAGCATAGCAAGTTTAAATAAAGCTAGTCTGTTATCAACTAGAAATAGTGGCACAGAGTCTGTGCT
modifications: listed as DNA, chemistry not fully specified
[1]
  Mean relative activity: 0.2732

B29: cr654 (nucleic acid)
guide: GTTTAAGAGCTAAGCTGGAAACAGCATAGCAAGATTAAATAAGGCTAGTCCGTTATCAACTTGATAAAGTGGCACCGAGTCGGTGCT
modifications: listed as DNA, chemistry not fully specified
[1]
  Mean relative activity: 0.2692

B30: cr374 (nucleic acid)
guide: GTTTAAGAGCTAAGCTGGAAACAGCATAGCAAGTTTAAATAAGGATAGTCCGTTATCAACTTGAAAAAGTGGCACCGAGTCGGTGCT
modifications: listed as DNA, chemistry not fully specified
[1]
  Mean relative activity: 0.2686

— patent US20220259593A1, “CONTROL OF MAMMALIAN GENE DOSAGE USING CRISPR” (The Regents of the University of California, priority 2019, published 2022)
